The data set concerns Immunoglobulin E (IgE) (Homo sapiens), P01854-1. As to the kind of experiment: filter.
Setting [1] is: 2'-OMe/2'-deoxy mix, 3:21 pair changed, DPBS Mg/Ca, 0.1 mg/mL BSA, RT.

pKd: −log10 of the molar value. Where two headings read alike, the source gives them in different places.

Sequence of Immunoglobulin E (IgE) (Homo sapiens), P01854-1 (P01854 other isoform, or with tags, fused parts or gaps): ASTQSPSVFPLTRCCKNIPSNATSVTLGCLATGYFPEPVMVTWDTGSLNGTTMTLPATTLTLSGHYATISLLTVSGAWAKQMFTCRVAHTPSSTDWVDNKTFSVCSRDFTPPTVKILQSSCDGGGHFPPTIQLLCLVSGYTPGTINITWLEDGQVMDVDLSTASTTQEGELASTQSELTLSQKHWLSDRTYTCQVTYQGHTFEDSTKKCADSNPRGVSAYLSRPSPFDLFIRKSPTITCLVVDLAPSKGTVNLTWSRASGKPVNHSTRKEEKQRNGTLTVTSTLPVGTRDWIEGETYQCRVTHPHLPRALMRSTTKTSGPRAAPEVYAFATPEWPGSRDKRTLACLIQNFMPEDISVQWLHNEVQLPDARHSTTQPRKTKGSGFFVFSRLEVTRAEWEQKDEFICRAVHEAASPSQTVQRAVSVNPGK

On to AGCCUGGGGACCCAUGGGGGGCU [ARC3262], for which the pKd (ARC1666 pattern with 2'-OMe G8, 3' idT [dI (written G) at 16,18,20, 2'-OMe 1-5,7,8,10-15,17,22,23, deoxy 6,9,16,18-21, PS 8/9,15/16,16/17,18/19,20/21, 3' inverted dT left out], dPBS Ca/Mg + BSA, RT) was 9.80.

Consider AGCCUGGGGACCCAUGGGGGGCU [ARC3263], for which the pKd (ARC1666 pattern with 2'-OMe G9, 3' idT [dI (written G) at 16,18,20, 2'-OMe 1-5,7,9,10-15,17,22,23, deoxy 6,8,16,18-21, PS 8/9,15/16,16/17,18/19,20/21, 3' inverted dT left out], dPBS Ca/Mg + BSA, RT) was 10.59.

As to AGCCUGGGGACCCAUGGGGGGCU [ARC3266], the pKd (ARC1666 pattern with 2'-OMe G8 and 2'-OMe I16, 3' idT [inosine (written G) at 16 (2'-OMe I),18,20 (dI), 2'-OMe 1-5,7,8,10-17,22,23, deoxy 6,9,18-21, PS 8/9,15/16,16/17,18/19,20/21, 3' inverted dT left out], dPBS Ca/Mg + BSA, RT) was 8.89.

Regarding AGCCUGGGGACCCAUGGGGGGCU [ARC3270], the pKd (ARC1666 pattern with 2'-OMe G9 and extra PS after G21, C22 and U23, 3' idT [dI (written G) at 16,18,20, 2'-OMe 1-5,7,9,10-15,17,22,23, deoxy 6,8,16,18-21, PS 8/9,15/16,16/17,18/19,20/21,21/22,22/23,23/idT, 3' inverted dT left out], dPBS Ca/Mg + BSA, RT) was 10.40.

AGCCUGGGNGACCCAUNNNGNNGNNGCUN [ARC3264] gave a pKd (ARC1666 chemistry with 2'-OMe I16, 3' idT, DPBS Mg/Ca, BSA, RT) of 9.44.

With AGCCUGGGNGACCCAUNNNGNNGNNGCUN [ARC3265], where the note is “ARC1666 chemistry with 2'-OMe G8,G9, 3' idT, DPBS Mg/Ca, BSA, RT”, the pKd is 9.54.

AGCCUGGGNGACCCAUNNNGNNGNNGCUN [ARC3267] had a pKd (ARC1666 chemistry with 2'-OMe G9,I16, 3' idT, DPBS Mg/Ca, BSA, RT) of 9.70.

In the case of AGCCUGGGNGACCCAUNNNGNNGNNGCUN [ARC3268], where the note is “ARC1666 chemistry with 2'-OMe G8,G9,I16, 3' idT, DPBS Mg/Ca, BSA, RT”, the negative-log Kd (pKd) was 9.22.

For “AGCCUGGGNGACCCAUNNNGNNGNNGCUNN [ARC2369]”, the pKd (ARC1666 pattern, 3'-NH-PEG20K, no idT, dPBS Ca/Mg + BSA, RT) was 10.52.

Turning to “AGCCUGGGNGACCCAUNNNGNNGNNGNCNUN [ARC2341]”, the pKd (ARC1666 chemistry + PS 21-22,22-23, 3' idT, DPBS Mg/Ca, BSA, RT) is 10.30.

In the case of “AGCCUGGGNGACCCAUNNNGNNGNNGNCNUNN [ARC2342]”, for the setting “ARC1666 chemistry + PS 21-22,22-23,23-idT, 3' idT, second independent measurement 0.04 nM”, the pKd is 9.72.

In the case of “AGCCUGGGNGACCCAUNNNGNNGNNGNCNUNN [ARC3269]”, for the setting “ARC2342 chemistry with 2'-OMe G8, 3' idT, DPBS Mg/Ca, BSA, RT”, the pKd was 9.28.

Take “AGCCUGGGNGACCCAUNNNGNNGNNGNCNUNN [ARC3271]”: where the note is “ARC2342 chemistry with 2'-OMe I16, 3' idT, DPBS Mg/Ca, BSA, RT”, the pKd is 9.64.

For the setting “ARC2342 chemistry with 2'-OMe G8,G9, 3' idT, DPBS Mg/Ca, BSA, RT”, “AGCCUGGGNGACCCAUNNNGNNGNNGNCNUNN [ARC3272]” had a pKd of 9.92.

Turning to “AGCCUGGGNGACCCAUNNNGNNGNNGNCNUNN [ARC3273]”, the negative-log Kd (pKd) (ARC2342 chemistry with 2'-OMe G8,I16, 3' idT, DPBS Mg/Ca, BSA, RT) was 9.07.

Under “ARC2342 chemistry with 2'-OMe G9,I16, 3' idT, DPBS Mg/Ca, BSA, RT”, “AGCCUGGGNGACCCAUNNNGNNGNNGNCNUNN [ARC3274]” showed a pKd of 9.92.

With “AGCCUGGGNGACCCAUNNNGNNGNNGNCNUNN [ARC3275]”, the pKd (ARC2342 chemistry with 2'-OMe G8,G9,I16, 3' idT, DPBS Mg/Ca, BSA, RT) is 9.17.

Take “AGCCUGGGNGACCCAUNNNGNNGNNGNCUN [ARC2340]”: the pKd (ARC1666 pattern plus PS between G21 and C22, 3' idT, dPBS Ca/Mg + BSA, RT) was 10.10.

In the case of “AGCCUGGGNGACCCAUNNNGNNGNNNGCUN [ARC2983]”, the negative-log Kd (pKd) (ARC1666 chemistry + PS 19-20, 3' idT, DPBS Mg/Ca, BSA, RT) is 10.70.

With “AGCCUGGGNGACCCAUNNNGNNNGNNGCUN [ARC2982]”, the pKd (ARC1666 chemistry + PS 17-18, 3' idT, DPBS Mg/Ca, BSA, RT) was 10.52.

In the case of “AGCCUGGGNGACCCNAUNNNGNNGNNGCUN [ARC2980]”, for the setting “ARC1666 chemistry + PS 13-14, 3' idT, DPBS Mg/Ca, BSA, RT”, the pKd is 10.40.

For “AGCCUGGGNGACCNCAUNNNGNNGNNGCUN [ARC2979]”, the pKd (ARC1666 chemistry + PS 12-13, 3' idT, DPBS Mg/Ca, BSA, RT) was 10.30.

In the case of “AGCCUGGGNGACNCCAUNNNGNNGNNGCUN [ARC2978]”, the pKd (ARC1666 chemistry + PS 11-12, 3' idT, DPBS Mg/Ca, BSA, RT) was 10.30.

In the case of “AGCCUGGGNGANCCCAUNNNGNNGNNGCUN [ARC2977]”, the pKd (ARC1666 chemistry + PS 10-11, 3' idT, DPBS Mg/Ca, BSA, RT) is 10.30.

As for “AGCCUGGGNGNACCCAUNNNGNNGNNGCUN [ARC2976]”, the pKd (ARC1666 pattern plus PS between G9 and A10, 3' idT, dPBS Ca/Mg + BSA, RT) is 9.52.

With “AGCCUGGNGNGACCCAUNNNGNNGNNGCUN [ARC2975]”, the pKd (ARC1666 chemistry + PS 7-8, 3' idT, DPBS Mg/Ca, BSA, RT) is 10.40.

On to “AGCCUGNGGNGACCCAUNNNGNNGNNGCUN [ARC2974]”, for which, under “ARC1666 chemistry + PS 6-7, 3' idT, DPBS Mg/Ca, BSA, RT”, the pKd was 10.15.

Consider “AGCCUNGGGNGACCCAUNNNGNNGNNGCUN [ARC2973]”, for which the pKd (ARC1666 chemistry + PS 5-6, 3' idT, DPBS Mg/Ca, BSA, RT) was 10.30.

Take “AGCNCUGGGNGACCCAUNNNGNNGNNGCUN [ARC2971]”: under “ARC1666 chemistry + PS 3-4, 3' idT, DPBS Mg/Ca, BSA, RT”, the pKd was 10.22.

On to AGGCUGGGGACCCAUGGGGGCCU [ARC1244], for which the pKd (dRmY, dPBS Ca/Mg + BSA, RT) is 6.35.

Turning to AGGCUGGGGACCCAUGGGGGCCU [ARC1245], under setting [1], the pKd is 6.70.

In the case of “AGNCCUGGGNGACCCAUNNNGNNGNNGCUN [ARC2970]”, the pKd (ARC1666 chemistry + PS 2-3, 3' idT, DPBS Mg/Ca, BSA, RT) was 10.40.

As for AGUAGCCUGGGGACCCAUGGGGGGCUACU [ARC3276], the pKd (mAmGmUmAmGmCmCmUdGmGdG-s-dGmAmCmCmCmAmU-s-dI-s-mGdI-s-dGdI-s-dGmCmUmAmCmU [dI (written G) at 19,21,23, 2'-OMe 1-8,10,13-18,20,25-29, deoxy 9,11,12,19,21-24, PS 11/12,18/19,19/20,21/22,23/24, 3' inverted dT left out], dPBS Ca/Mg + BSA, RT) was 10.52.

Turning to AGUCUGGGGACCCAUGGGGGACU [ARC1246], under setting [1], the pKd is 7.47.

AGUCUGGGGACCCAUGGGGGACU [ARC1247]: under setting [1], the pKd was 6.72.

Regarding “ANGCCUGGGNGACCCAUNNNGNNGNNGCUN [ARC2969]”, the negative logarithm of the Kd (pKd) (ARC1666 chemistry + PS 1-2, 3' idT, DPBS Mg/Ca, BSA, RT) was 10.05.

“GCGGGCAAATTCATCCGTCCCTCCTAGTGGTTTGCCC [DNA clone SEQ 147]” had a pKd of 9.30.

As to “GGAAUCAUACACAAGACGUCAGUAAGAUUGAGUGUAUGGUU [rRfY minimer SEQ 96]”, the pKd (2'-F C and U, KD2 39.7 nM, 1xSHMCK + tRNA) is 9.44.

As to “GGAAUCAUACACAAGACGUCAGUAAGAUUGAGUGUAUGGUUCC [rRfY minimer SEQ 95]”, the pKd (2'-F C and U, KD2 117.2 nM, 1xSHMCK + tRNA) was 8.35.

For the sequence “GGAAUCAUACACAAGACGUCGCCAGAUUGAGUGUCGUGGUU [rRfY minimer SEQ 92]”, the pKd (2'-F C and U, KD2 22.0 nM, 1xSHMCK + tRNA) is 9.60.

In the case of “GGAUCCGAGGGUGGGCAAUAGGCUCACAAGGGUCC [rRfY minimer SEQ 94]”, the pKd (2'-F C and U, KD2 26.5 nM, 1xSHMCK + tRNA) is 9.00.

For the sequence “GGGAAAAGCGAAUCAUACACAAGACGUGAGCAUAUCAUUGAGUGUAGUGGUUCCGGAGUAAGUCGCUCCGCCAGAGACCAACCGAGAA [rRfY clone SEQ 15]”, the pKd (2'-F C and U, biphasic, KD2 19.0 nM, 1xSHMCK + tRNA, RT) was 9.94.

“GGGAAAAGCGAAUCAUACACAAGAGUGCAAGAAGUGCAUUGCUGUGUCUGGUUCUUGGCGAUGUGCUCCGCCAGAGACCAACCGAGAA [rRfY clone SEQ 17]”: under “2'-F C,U, ratio bound +/- 20 nM IgE”, the binding signal worked out at 0.76.

For “GGGAGAGGAGAGAACGUUCUACAAGCAGUUCUGGGGACCCAUGGGGGAAGUGCGCUGUCGAUCGAUCGAUCGAUG [ARC1992]”, the pKd (dRmY: 2'-deoxy A,G, 2'-OMe C,U, error 8, dPBS Ca/Mg + BSA, RT) was 8.00.

As for “GGGAGAGGAGAGAACGUUCUACACUCUGGGGACCCGUGGGGGAGUGCAGCAACGCUGUCGAUCGAUCGAUCGAUG [ARC2005]”, the pKd (dRmY: 2'-deoxy A,G, 2'-OMe C,U, error 3, dPBS Ca/Mg + BSA, RT) was 8.30.

With “GGGAGAGGAGAGAACGUUCUACAGGCAGUUCUGGGGACCCAUGGGGGAAGUGCGCUGUCGAUCGAUCGAUCGAUG [ARC1991]”, the pKd (dRmY: 2'-deoxy A,G, 2'-OMe C,U, error 2, dPBS Ca/Mg + 0.1 mg/mL BSA, RT, 87.7 nM with 1 mg/mL tRNA + ssDNA competitor (p280)) was 8.70.

“GGGAGAGGAGAGAACGUUCUACAUUGUGCUCCUGGGGCCCAGUGGGGAGCCACGCUGUCGAUCGAUCGAUCGAUG [ARC1995]”: for the setting “dRmY: 2'-deoxy A,G, 2'-OMe C,U, error 2, dPBS Ca/Mg + BSA, RT”, the pKd was 8.40.

For the sequence “GGGAGAGGAGAGAACGUUCUACCAACGGCAUCCUGGGCCCCACAGGGGAUGUCGCUGUCGAUCGAUCGAUCGAUG [ARC2002]”, the pKd (dRmY: 2'-deoxy A,G, 2'-OMe C,U, error 6, dPBS Ca/Mg + BSA, RT) is 8.10.

For “GGGAGAGGAGAGAACGUUCUACCCGCAGCAUAGCCUGGGGACCCAUGGGGGGCGCUGUCGAUCGAUCGAUCGAUG [ARC1994]”, the pKd (dRmY: 2'-deoxy A,G, 2'-OMe C,U, error 5, dPBS Ca/Mg + BSA, RT, 109.7 nM with tRNA + ssDNA competitor (p280)) was 8.30.

Take “GGGAGAGGAGAGAACGUUCUACGAGCAGCCCUGGGGCCCGGAGGGGGAUGGUCGCUGUCGAUCGAUCGAUCGAUG [ARC1993]”: the pKd (dRmY: 2'-deoxy A,G, 2'-OMe C,U, error 4, dPBS Ca/Mg + BSA, RT) was 8.05.

By pKd is commonly meant −log10 of the Kd, conventionally taken in molar units.

For the origin of these results see patent US20090018093.
